Experimental data as given in article PMC6994259 (Nature, 2020).

T1: Sgf73 (S. cerevisiae, UniProt P53165 1-657)
T1 sequence: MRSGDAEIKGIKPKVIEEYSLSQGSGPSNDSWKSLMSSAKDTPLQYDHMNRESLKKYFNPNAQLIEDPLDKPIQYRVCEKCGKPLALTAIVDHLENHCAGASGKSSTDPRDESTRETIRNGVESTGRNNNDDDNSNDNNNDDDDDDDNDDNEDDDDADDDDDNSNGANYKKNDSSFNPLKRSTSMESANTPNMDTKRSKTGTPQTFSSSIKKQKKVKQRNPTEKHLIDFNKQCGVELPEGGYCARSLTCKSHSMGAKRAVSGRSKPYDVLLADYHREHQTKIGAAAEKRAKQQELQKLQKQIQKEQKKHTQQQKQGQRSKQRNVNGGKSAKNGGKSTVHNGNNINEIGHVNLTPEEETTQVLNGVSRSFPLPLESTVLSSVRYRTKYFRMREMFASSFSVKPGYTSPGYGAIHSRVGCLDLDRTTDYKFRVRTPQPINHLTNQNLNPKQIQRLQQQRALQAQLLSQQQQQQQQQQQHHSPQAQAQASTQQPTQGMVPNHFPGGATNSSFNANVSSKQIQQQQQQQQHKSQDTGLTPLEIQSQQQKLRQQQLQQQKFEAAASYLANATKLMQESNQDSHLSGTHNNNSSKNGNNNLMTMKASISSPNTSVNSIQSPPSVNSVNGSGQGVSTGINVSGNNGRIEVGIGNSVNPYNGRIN

T2: Spt20 (S. cerevisiae, UniProt P50875 1-604)
T2 sequence: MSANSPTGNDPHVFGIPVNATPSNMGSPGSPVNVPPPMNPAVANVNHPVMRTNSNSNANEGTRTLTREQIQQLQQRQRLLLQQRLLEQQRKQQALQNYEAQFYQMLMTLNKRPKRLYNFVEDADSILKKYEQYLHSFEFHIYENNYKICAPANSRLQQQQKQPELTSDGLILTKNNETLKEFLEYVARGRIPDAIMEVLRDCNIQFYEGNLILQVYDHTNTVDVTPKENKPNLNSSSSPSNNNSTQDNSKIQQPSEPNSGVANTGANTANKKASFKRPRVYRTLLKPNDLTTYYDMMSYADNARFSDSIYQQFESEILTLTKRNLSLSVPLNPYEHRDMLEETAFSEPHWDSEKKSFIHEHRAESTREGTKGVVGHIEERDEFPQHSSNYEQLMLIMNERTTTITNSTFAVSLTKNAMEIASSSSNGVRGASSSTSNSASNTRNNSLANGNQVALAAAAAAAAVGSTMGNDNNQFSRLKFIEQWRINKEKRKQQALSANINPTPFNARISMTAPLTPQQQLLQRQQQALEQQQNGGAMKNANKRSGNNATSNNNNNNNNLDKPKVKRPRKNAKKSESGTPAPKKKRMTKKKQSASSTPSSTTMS

B1: Ada1 (natural protein)
chain: MSAIQSPAPKPLQPTYPAASPASTNAYMKPGLIGSPAVSNHTEPNNGNNETAEPQGPNQRIDLGAMIEELTSLLGKESWTKYAQIISLFILGKLSRKELSNELELVFSPSAASLEKSNTNHHHSLVRLHNQLLLGIFANSLRENPLGRNGNESSWGFGNGSNNPNNKLKRINKHNSQIEVYKKIVMSLPLNDRNRLKMITKEAGKRGFIFCSVFQARLNNIPKIPIVTNPESLKRVKSNNLKTPLEWSQDIMNGFNVPLASESHSLPDTDSFYLRMVGIAREHGLVGTVDARCVELISLALDQYLKNIIEFTIDTVRYRRKKYSDYYDLNESGLYKSVSEMAADKRDAKIKQLDDDKNEDECADEAKSINNGNNSSKDDIGDISMSSITKAGEAVNEELHENRTISLTNEDIYDSLSIFPNLVEPSGSYYALTNLGLVNDDELVDMKSNIDDLPDFLNEKPTFTPLDERNVGTRHELNWLIKGILTED
B2: Taf12 (natural protein)
chain: MSSNPENSGVNANNNTGTGNADAITGAQQNMVLQPRQLQEMAAKFRTLLTEARNVGETTPRGKELMFQAAKIKQVYDALTLNRRRQQAAQAYNNTSNSNSSNPASIPTENVPNSSQQQQQQQQQTRNNSNKFSNMIKQVLTPEENQEYEKLWQNFQVRHTSIKEKETYLKQNIDRLEQEINKQTDEGPKQQLQEKKIELLNDWKVLKIEYTKLFNNYQNSKKTFYVECARHNPALHKFLQESTQQQRVQQQRVQQQQQQQQQQQQQQQQQQQQQQQRQGQNQRKISSSNSTEIPSVTGPDALKSQQQQQNTITATNNPRGNVNTSQTEQSKAKVTNVNATASMLNNISSSKSAIFKQTEPAIPISENISTKTPAPVAYRSNRPTITGGSAMNASALNTPATTKLPPYEMDTQRVMSKRKLRELVKTVGIDEGDGETVIDGDVEELLLDLADDFVTNVTAFSCRLAKHRKSDNLEARDIQLHLERNWNIRIPGYSADEIRSTRKWNPSQNYNQKLQSITSDKVAAAKNNGNNVASLNTKK

Assays:
Experiment in all cases: cryo-EM structure
Sgf73 = molecular target: T1, Sgf73
Taf12 = molecular target: B2
Tra1 = Tra1 (S. cerevisiae, UniProt P38811 1-3744)
Tra1, sequence (P38811 whole entry): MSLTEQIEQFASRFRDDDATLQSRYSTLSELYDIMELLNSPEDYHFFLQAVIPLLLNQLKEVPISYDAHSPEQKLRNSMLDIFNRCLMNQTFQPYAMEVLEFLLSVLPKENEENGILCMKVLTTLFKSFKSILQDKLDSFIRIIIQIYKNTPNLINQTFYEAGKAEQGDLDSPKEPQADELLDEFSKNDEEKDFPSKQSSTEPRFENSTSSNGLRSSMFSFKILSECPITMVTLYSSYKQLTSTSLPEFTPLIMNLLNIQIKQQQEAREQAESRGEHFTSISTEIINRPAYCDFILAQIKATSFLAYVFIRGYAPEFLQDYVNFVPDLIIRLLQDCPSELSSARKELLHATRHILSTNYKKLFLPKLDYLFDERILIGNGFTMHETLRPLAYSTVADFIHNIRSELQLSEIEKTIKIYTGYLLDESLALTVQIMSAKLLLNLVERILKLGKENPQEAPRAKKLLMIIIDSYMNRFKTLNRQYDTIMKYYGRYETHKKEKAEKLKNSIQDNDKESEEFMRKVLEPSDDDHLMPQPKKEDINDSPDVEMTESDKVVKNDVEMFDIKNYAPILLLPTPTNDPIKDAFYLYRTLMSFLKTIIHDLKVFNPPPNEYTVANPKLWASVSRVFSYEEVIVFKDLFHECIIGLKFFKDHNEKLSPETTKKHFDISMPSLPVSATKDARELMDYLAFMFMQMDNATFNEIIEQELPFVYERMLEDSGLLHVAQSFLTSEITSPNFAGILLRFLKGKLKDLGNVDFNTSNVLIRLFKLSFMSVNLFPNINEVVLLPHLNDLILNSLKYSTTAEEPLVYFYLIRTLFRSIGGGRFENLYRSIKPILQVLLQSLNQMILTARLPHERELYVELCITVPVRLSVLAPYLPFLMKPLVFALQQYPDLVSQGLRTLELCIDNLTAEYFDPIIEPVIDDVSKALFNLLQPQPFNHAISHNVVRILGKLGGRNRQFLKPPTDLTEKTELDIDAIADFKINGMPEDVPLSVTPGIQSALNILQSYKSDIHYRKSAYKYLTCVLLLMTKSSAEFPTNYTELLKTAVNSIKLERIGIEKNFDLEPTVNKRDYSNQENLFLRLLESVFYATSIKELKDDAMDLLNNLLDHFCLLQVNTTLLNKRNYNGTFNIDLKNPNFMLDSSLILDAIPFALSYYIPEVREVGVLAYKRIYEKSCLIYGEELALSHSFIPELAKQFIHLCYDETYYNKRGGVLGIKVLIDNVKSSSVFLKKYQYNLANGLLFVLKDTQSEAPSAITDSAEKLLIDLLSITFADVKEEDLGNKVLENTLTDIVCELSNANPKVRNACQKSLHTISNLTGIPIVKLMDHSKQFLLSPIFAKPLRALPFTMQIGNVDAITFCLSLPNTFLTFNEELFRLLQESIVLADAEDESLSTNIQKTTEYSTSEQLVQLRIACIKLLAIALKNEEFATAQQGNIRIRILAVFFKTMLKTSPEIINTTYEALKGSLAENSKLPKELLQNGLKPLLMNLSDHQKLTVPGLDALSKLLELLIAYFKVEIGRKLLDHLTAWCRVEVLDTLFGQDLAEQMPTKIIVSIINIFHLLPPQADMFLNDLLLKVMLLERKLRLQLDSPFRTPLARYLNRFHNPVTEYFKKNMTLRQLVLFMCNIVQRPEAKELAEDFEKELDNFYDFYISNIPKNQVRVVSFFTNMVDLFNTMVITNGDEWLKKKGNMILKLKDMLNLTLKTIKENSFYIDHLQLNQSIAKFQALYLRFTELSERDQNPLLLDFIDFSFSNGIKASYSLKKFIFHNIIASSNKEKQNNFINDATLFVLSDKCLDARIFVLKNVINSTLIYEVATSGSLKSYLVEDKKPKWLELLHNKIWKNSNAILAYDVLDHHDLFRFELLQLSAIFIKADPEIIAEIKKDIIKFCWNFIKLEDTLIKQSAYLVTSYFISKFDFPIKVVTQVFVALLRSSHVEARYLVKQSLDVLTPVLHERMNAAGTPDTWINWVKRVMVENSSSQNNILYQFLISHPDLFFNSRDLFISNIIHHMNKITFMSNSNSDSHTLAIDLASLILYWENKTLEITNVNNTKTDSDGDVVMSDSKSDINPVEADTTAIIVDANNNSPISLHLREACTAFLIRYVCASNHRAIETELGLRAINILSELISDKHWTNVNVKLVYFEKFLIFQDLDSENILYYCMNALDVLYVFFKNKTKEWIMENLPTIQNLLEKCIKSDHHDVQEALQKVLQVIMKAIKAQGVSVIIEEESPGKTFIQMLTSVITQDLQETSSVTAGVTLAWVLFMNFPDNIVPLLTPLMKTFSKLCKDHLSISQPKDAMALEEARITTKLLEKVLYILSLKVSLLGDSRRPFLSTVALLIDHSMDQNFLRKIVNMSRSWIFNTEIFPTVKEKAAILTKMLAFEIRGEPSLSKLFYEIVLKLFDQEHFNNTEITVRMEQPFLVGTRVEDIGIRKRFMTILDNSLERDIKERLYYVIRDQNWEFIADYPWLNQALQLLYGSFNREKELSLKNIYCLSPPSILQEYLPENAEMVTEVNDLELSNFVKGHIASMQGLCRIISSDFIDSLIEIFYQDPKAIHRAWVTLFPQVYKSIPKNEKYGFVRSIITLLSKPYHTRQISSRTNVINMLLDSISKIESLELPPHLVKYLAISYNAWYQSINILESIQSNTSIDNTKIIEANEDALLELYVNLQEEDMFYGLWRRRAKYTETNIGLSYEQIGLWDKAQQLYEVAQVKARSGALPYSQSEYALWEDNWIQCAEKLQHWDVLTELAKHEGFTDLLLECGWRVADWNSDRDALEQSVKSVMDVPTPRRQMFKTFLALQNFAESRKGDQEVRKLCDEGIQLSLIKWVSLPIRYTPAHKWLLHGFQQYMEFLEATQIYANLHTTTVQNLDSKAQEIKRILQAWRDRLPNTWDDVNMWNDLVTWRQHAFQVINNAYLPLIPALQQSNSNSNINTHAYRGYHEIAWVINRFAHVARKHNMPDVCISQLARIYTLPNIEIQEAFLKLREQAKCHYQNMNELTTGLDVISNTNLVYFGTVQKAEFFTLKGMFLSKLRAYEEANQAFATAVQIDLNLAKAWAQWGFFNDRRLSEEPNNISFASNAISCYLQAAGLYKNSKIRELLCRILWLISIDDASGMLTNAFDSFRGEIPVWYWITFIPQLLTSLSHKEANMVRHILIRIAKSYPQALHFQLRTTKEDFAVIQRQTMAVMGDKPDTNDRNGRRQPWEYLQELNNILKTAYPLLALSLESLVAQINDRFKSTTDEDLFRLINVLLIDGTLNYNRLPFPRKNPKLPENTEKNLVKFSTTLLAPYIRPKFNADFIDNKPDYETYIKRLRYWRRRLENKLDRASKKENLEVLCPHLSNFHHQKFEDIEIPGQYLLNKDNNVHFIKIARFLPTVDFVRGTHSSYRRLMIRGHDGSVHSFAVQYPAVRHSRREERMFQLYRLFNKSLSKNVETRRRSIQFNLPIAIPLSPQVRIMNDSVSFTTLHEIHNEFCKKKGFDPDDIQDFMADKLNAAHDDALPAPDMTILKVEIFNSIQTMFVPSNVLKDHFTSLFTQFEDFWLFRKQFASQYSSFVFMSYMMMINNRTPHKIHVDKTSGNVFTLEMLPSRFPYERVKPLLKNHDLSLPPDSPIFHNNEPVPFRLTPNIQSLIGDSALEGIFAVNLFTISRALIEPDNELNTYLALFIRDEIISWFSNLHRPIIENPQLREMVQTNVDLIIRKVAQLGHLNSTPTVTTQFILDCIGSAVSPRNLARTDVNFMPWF

Spt20 = molecular target: T2, Spt20

Row | binding result (Sgf73) | binding result (Taf12) | binding result (Tra1) | binding result (Spt20) | Binder
1 | binds | binds |  |  | B1
2 | binds |  | binds | binds | B2
